Laboratory results as given in paper doi:10.1101/2021.11.02.466875.
Read-outs that look alike come from different tables or passages of the source.

Assays:
Experiment in all cases: BLI
[1] = molecular target: RapC (Bacillus velezensis SQR9)
[2] = molecular target: RapC (Bacillus velezensis SQR9); remark: listed apart in the source
[3] = molecular target: RapC (Bacillus velezensis SQR9); remark: listed apart in the source
[4] = molecular target: RapC (Bacillus velezensis SQR9); remark: listed apart in the source

Kd [1]: 13.5 nM
Kd [2]: 5.49 nM
Kd [3]: 26.8 nM
Kd [4]: 8.69 nM
Substance: ComA (natural protein)
